B1: H71365.2 (bispecific antibody)
chain 1: QVQLVESGGGVVQPGRSLRLSCAASGFTFSSYGMHWVRQAPGKGLEWVAVISYPGNTKYYADSVKGRFTISRDNSKNTLYLQMNSLRAEDTAVYFCARDQKEWRLIFDYWGQGTLVTVSSGGGGSGGGGSQVQLQESGPGLVKPSQTLSLTCTVSGGSINNNNYYWTWIRQHPGKGLEWIGYIYYSGSTFYNPSLKSRVTISVDTSKTQFSLKLSSVTAADTAVYYCAREDTMTGLDVWGQGTTVTVSSASTKGPSVFPLAPCSRSTSESTAALGCLVKDYFPEPVTVSWNSGALTSGVHTFPAVLQSSGLYSLSSVVTVPSSNFGTQTYTCNVDHKPSNTKVDKTVGGGGSAAAVPRDLEVVAATPTSLLISWDAPHHGVAYYRITYGETGGNSPVQEFTVPGSKSTATISGLKPGVDYTINVYAVLAYPRGYPLSKPISINYRTDYKDDDDKGSSHHHHHH
chain 2: DIQMTQSPSSVSASVGDRVTITCRASQGISSWLAWYQQKPGKAPKLLIYAASSLQSGVPSRFSGSGSGAAFTLTISSLQPEDFATYFCQQANSFPLTFAGGTKVDIKRGGGGSGGGGSDIQMTQSPSSLSASVGDRVTITCRASQSINNYLNWYQQKPGKAPTLLIYAASSLQSGVPSRFSGSRSGTDFTLTISSLQPEDFAAYFCQQTYSNPTFGQGTKVEVKRTVAAPSVFIFPPSDEQLKSGTASVVCLLNNFYPREAKVQWKVDNALQSGNSQESVTEQDSKDSTYSLSSTLTLSKADYEKHKVYACEVTHQGLSSPVTKSFNRGEC
notes: also called H71364.2
B2: H69071.4 (bispecific antibody)
chain 1: QVQLQESGPGLVKPSQTLSLTCTVSGGSINNNNYYWTWIRQHPGKGLEWIGYIYYSGSTFYNPSLKSRVTISVDTSKTQFSLKLSSVTAADTAVYYCAREDTMTGLDVWGQGTLVTVSSGGGGSGGGGSDIQMTQSPSSVSASVGDRVTITCRASQGISSWLAWYQQKPGKAPKLLIYAASSLQSGVPSRFSGSGSGAAFTLTISSLQPEDFATYFCQQANSFPLTFAGGTKVDIKRASTKGPSVFPLAPCSRSTSESTAALGCLVKDYFPEPVTVSWNSGALTSGVHTFPAVLQSSGLYSLSSVVTVPSSNFGTQTYTCNVDHKPSNTKVDKTVGGGGSAAAVPRDLEVVAATPTSLLISWDAPHHGVAYYRITYGETGGNSPVQEFTVPGSKSTATISGLKPGVDYTINVYAVLAYPRGYPLSKPISINYRTDYKDDDDKGSSHHHHHH
chain 2: QVQLVESGGGVVQPGRSLRLSCAASGFTFSSYGMHWVRQAPGKGLEWVAVISYPGNTKYYADSVKGRFTISRDNSKNTLYLQMNSLRAEDTAVYFCARDQKEWRLIFDYWGQGTLVTVSSGGGGSGGGGSDIQMTQSPSSLSASVGDRVTITCRASQSINNYLNWYQQKPGKAPTLLIYAASSLQSGVPSRFSGSRSGTDFTLTISSLQPEDFAAYFCQQTYSNPTFGQGTKVEVKRTVAAPSVFIFPPSDEQLKSGTASVVCLLNNFYPREAKVQWKVDNALQSGNSQESVTEQDSKDSTYSLSSTLTLSKADYEKHKVYACEVTHQGLSSPVTKSFNRGEC
notes: also called H69071.2
B3: H69070.4 (bispecific antibody)
chain 1: QVQLVESGGGVVQPGRSLRLSCAASGFTFSSYGMHWVRQAPGKGLEWVAVISYPGNTKYYADSVKGRFTISRDNSKNTLYLQMNSLRAEDTAVYFCARDQKEWRLIFDYWGQGTLVTVSSASTKGPQVQLQESGPGLVKPSETLSLTCTVSGGSIISHYWSWIRQPPGKGLEWIGYIYYSGSTNYNPSLKSRVTISVDTSKNQFSLKLTSVTAADTAVYYCARDGWSAFDYWGQGTLVTVSSASTKGPSVFPLAPCSRSTSESTAALGCLVKDYFPEPVTVSWNSGALTSGVHTFPAVLQSSGLYSLSSVVTVPSSNFGTQTYTCNVDHKPSNTKVDKTVGGGGSAAAVPRDLEVVAATPTSLLISWDAPHHGVAYYRITYGETGGNSPVQEFTVPGSKSTATISGLKPGVDYTINVYAVLAYPRGYPLSKPISINYRTDYKDDDDKGSSHHHHHH
chain 2: DIQMTQSPSSVSASVGDRVTITCRASQGISSWLAWYQQKPGKAPKLLIYAASSLQSGVPSRFSGSGSGAAFTLTISSLQPEDFATYFCQQANSFPLTFAGGTKVDIKRTVAAPDIQMTQSPSSLSASVGDRVTITCRASQGIRNALGWYQQKPGKAPKRLIYAASSLQSGVPSRFSGSGSGTEFTLTISSLQPEDFATYYCLQHNSYPRTFGQGTKVEIRRTVAAPSVFIFPPSDEQLKSGTASVVCLLNNFYPREAKVQWKVDNALQSGNSQESVTEQDSKDSTYSLSSTLTLSKADYEKHKVYACEVTHQGLSSPVTKSFNRGEC
B4: H69072.4 (bispecific antibody)
chain 1: DIQMTQSPSSVSASVGDRVTITCRASQGISSWLAWYQQKPGKAPKLLIYAASSLQSGVPSRFSGSGSGAAFTLTISSLQPEDFATYFCQQANSFPLTFAGGTKVDIKRGGGGSGGGGSQVQLQESGPGLVKPSQTLSLTCTVSGGSINNNNYYWTWIRQHPGKGLEWIGYIYYSGSTFYNPSLKSRVTISVDTSKTQFSLKLSSVTAADTAVYYCAREDTMTGLDVWGQGTTVTVSSASTKGPSVFPLAPCSRSTSESTAALGCLVKDYFPEPVTVSWNSGALTSGVHTFPAVLQSSGLYSLSSVVTVPSSNFGTQTYTCNVDHKPSNTKVDKTVGGGGSAAAVPRDLEVVAATPTSLLISWDAPHHGVAYYRITYGETGGNSPVQEFTVPGSKSTATISGLKPGVDYTINVYAVLAYPRGYPLSKPISINYRTDYKDDDDKGSSHHHHHH
chain 2: DIQMTQSPSSLSASVGDRVTITCRASQSINNYLNWYQQKPGKAPTLLIYAASSLQSGVPSRFSGSRSGTDFTLTISSLQPEDFAAYFCQQTYSNPTFGQGTKVEVKGGGGSGGGGSQVQLVESGGGVVQPGRSLRLSCAASGFTFSSYGMHWVRQAPGKGLEWVAVISYPGNTKYYADSVKGRFTISRDNSKNTLYLQMNSLRAEDTAVYFCARDQKEWRLIFDYWGQGTLVTVSSRTVAAPSVFIFPPSDEQLKSGTASVVCLLNNFYPREAKVQWKVDNALQSGNSQESVTEQDSKDSTYSLSSTLTLSKADYEKHKVYACEVTHQGLSSPVTKSFNRGEC
B5: P69058.3 (bispecific antibody)
chain 1: QVQLQESGPGLVKPSQTLSLTCTVSGGSINNNNYYWTWIRQHPGKGLEWIGYIYYSGSTFYNPSLKSRVTISVDTSKTQFSLKLSSVTAADTAVYYCAREDTMTGLDVWGQGTLVTVSSGGGGSGGGGSSSYELTQPPSVSVSPGQTARITCSGDALPKKYAYWYQQKSGQAPVLVIYEATKRPSGIPERFSGSSSGTMATLTLSGAQVEDEADYYCYSTDSTNYHWVFGGGTKLTVLGASTKGPSVFPLAPCSRSTSESTAALGCLVKDYFPEPVTVSWNSGALTSGVHTFPAVLQSSGLYSLSSVVTVPSSNFGTQTYTCNVDHKPSNTKVDKTVGGGGSAAAVPRDLEVVAATPTSLLISWDAPHHGVAYYRITYGETGGNSPVQEFTVPGSKSTATISGLKPGVDYTINVYAVLAYPRGYPLSKPISINYRTDYKDDDDKGSSHHHHHH
chain 2: EVQLVESGGGLVKPGVSLRLSCAASGFTFSRYGMNWVRQAPGKGLEWVSSISSSGTYIKYADSVKGRFTISRDNAKNSLNLQMNSLRAEDTAVYYCARDRDRYPLDYWGQGTLVTVSSGGGGSGGGGSDIQMTQSPSSLSASVGDRVTITCRASQSINNYLNWYQQKPGKAPTLLIYAASSLQSGVPSRFSGSRSGTDFTLTISSLQPEDFAAYFCQQTYSNPTFGQGTKVEVKRTVAAPSVFIFPPSDEQLKSGTASVVCLLNNFYPREAKVQWKVDNALQSGNSQESVTEQDSKDSTYSLSSTLTLSKADYEKHKVYACEVTHQGLSSPVTKSFNRGEC
B6: P57216.9 (bispecific antibody)
chain 1: QVQLQESGPGLVKPSQTLSLTCTVSGGSINNNNYYWTWIRQHPGKGLEWIGYIYYSGSTFYNPSLKSRVTISVDTSKTQFSLKLSSVTAADTAVYYCAREDTMTGLDVWGQGTLVTVSSASTKGPEVQLVESGGGLVKPGVSLRLSCAASGFTFSRYSMNWVRQAPGKGLEWVSSISSSGTYIKYADSVKGRFTISRDNAKNSLNLQMNSLRAEDTAVYYCARDRDRYPLDYWGQGTLVTVSSASTKGPSVFPLAPCSRSTSESTAALGCLVKDYFPEPVTVSWNSGALTSGVHTFPAVLQSSGLYSLSSVVTVPSSNFGTQTYTCNVDHKPSNTKVDKTVGGGGSAAAVPRDLEVVAATPTSLLISWDAPHHGVAYYRITYGETGGNSPVQEFTVPGSKSTATISGLKPGVDYTINVYAVLAYPRGYPLSKPISINYRTDYKDDDDKGSSHHHHHH
chain 2: DIQMTQSPSSLSASVGDRVTITCRASQSINNYLNWYQQKPGKAPTLLIYAASSLQSGVPSRFSGSRSGTDFTLTISSLQPEDFAAYFCQQTYSNPTFGQGTKVEVKRTVAAPSSYELTQPPSVSVSPGQTARITCSGDALPKKYAYWYQQKSGQAPVLVIYEATKRPSGIPERFSGSSSGTMATLTLSGAQVEDEADYYCYSTDSTNYHWVFGGGTKLTVLGQPKAAPSVTLFPPSSEELQANKATLVCLISDFYPGAVTVAWKADSSPVKAGVETTTPSKQSNNKYAASSYLSLTPEQWKSHRSYSCQVTHEGSTVEKTVAPTECS

Target: T1, cynomolgus monkey CD3 (CD3 epsilon chain) on cynomolgus monkey T cells (cynomolgus monkey (Macaca fascicularis), UniProt Q95LI5 22-198)
T1 construct: The assay used isolated cynomolgus monkey T cells; also called cyno CD3
T1 chain: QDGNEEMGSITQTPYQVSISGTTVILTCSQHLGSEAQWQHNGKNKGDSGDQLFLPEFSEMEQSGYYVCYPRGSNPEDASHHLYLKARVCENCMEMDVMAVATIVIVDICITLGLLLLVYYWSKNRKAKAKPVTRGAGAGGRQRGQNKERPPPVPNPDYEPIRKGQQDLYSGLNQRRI
Experiment: FACS on isolated cynomolgus monkey T cells, FITC anti-human light chain secondary antibody
Method: (§1) The heterodimeric bispecific antibodies described in Example 1 were produced in HEK 293 cells and were assayed by fluorescence activated cell sorting (FACS) for binding to T cells, which express CD3, and to a human ovarian cancer cell line, Ovcar-8, which expresses mesothelin. Briefly, the heterodimeric bispecific antibodies were incubated with about 50,000 Ovcar-8 cells or isolated human or cynomolgus monkey T cells at 4° C. for one hour. The cells were then washed and stained with a fluorescein isothiocyanate (FITC)-conjugated anti-human light chain secondary antibody and analyzed by flow cytometry. The relative binding was represented by the geometric mean of fluorescence intensity.
(§2) Another set of constructs was made by methods similar to those used above using the same pair of anti-MSLN VH and VL regions as used in most constructs described above and a different pair of anti-CD3 VH and VL regions than used in most of the constructs described above. […] These constructs were tested using the assays described above, as well as the cynomolgus monkey T cell-dependent cell cytolysis (called “cyno TDCC”) assay described below.
In the case of B1, the “FACS binding (geometric mean)” value is reported as 276. B2 was tested, and the “FACS binding (geometric mean)” value was 121. For B3, the “FACS binding (geometric mean)” value was 127. B4 was tested, and the “FACS binding (geometric mean)” value was 110.

What follows are binders tested against T2, human CD3 (CD3 epsilon chain) on human T cells (human, UniProt P07766 22-207) (assay: FACS on isolated human T cells, FITC anti-human light chain secondary antibody).
T2 construct: The assay used isolated human T cells, which carry CD3 as part of the TCR-CD3 complex; also called CD3ε
T2 sequence (P07766 22-207 limits assumed): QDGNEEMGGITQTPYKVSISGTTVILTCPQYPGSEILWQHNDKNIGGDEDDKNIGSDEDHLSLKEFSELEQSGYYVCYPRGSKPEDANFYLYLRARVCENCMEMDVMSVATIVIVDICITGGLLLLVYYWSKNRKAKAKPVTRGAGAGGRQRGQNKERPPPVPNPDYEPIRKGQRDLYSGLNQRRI
Method: as §1, §2
B1 was tested, and the “FACS binding (geometric mean)” value was 66. With B2 the “FACS binding (geometric mean)” value was 16. For B3, the “FACS binding (geometric mean)” value was 9. For B4, the “FACS binding (geometric mean)” value was 11.

Target: T2, human CD3 (CD3 epsilon chain) on human …
Experiment: as above
Remark: another data set of the same source
Method: as §1
For B5, the “FACS binding (geometric mean)” value was 290. In the case of B6, the “FACS binding (geometric mean)” value is reported as 103.

Target: T1, cynomolgus monkey CD3 (CD3 epsilon …)
Experiment: cell-based or functional assay
For B1, the “Cyno TDCC EC50 (pM), Ovcar-8 cells with cynomolgus monkey T cells” value (“Cyno TDCC EC50 (pM), Ovcar-8 cells” below) was 8.1 pM and the “Cyno TDCC Max killing (%), Ovcar-8 cells with cynomolgus monkey T cells” value (“Cyno TDCC Max killing (%), Ovcar-8 cells” below) was 86%. For B2, the “Cyno TDCC EC50 (pM), Ovcar-8 cells” value was 3.2 pM and the “Cyno TDCC Max killing (%), Ovcar-8 cells” value was 88%. For B3, the “Cyno TDCC EC50 (pM), Ovcar-8 cells” value was 3 pM and the “Cyno TDCC Max killing (%), Ovcar-8 cells” value was 88%. For B4, the “Cyno TDCC EC50 (pM), Ovcar-8 cells” value was 18.8 pM and the “Cyno TDCC Max killing (%), Ovcar-8 cells” value was 91%.

— US20140308285A1 (Amgen, published 2014)
